# Results from the supplement of paper PMC6757056.
# ± gives the standard deviation of the averaged measurements.
# B1: library; a variant is named by its letters at N, in order (parent)
# chain: GCUGUCACCGGUGUAUUACCCUAGUGGUCGACCGGUCUGAUGAGUCUNNNNNNAGACGAAACAGC
# Experiments:
# hypoxanthine [1] = variants of: B1; test: FACS-Seq fitted mean relative fluorescence mCherry/BFP without ligand (log10 relative fluorescence); ligand: hypoxanthine (xanthine aptamer); higher = higher reporter protein expression; conditions: HEK293T, ligand present: no
# How it was run: (§1)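 An mCherry reporter containing the ribozyme switch and an EF1α-BFP marker were introduced by lentivirus into HEK293T libraries. Cells were enriched, incubated 48 h with or without ligand, sorted into 6 bins by mCherry/BFP, and bin genomic DNA was PCR-amplified, barcoded and sequenced on MiSeq. Fluorescence represents the normalized fitted normal mean of the bin counts. Fitting was done on log10(mCherry/BFP), scaling to five spiked-in control ribozymes.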
# hypoxanthine [2] = variants of: B1; test: normalized RNA/DNA level with ligand (relative to sTRSVctl = 100) (log10 (% of sTRSVctl)); ligand: hypoxanthine (xanthine aptamer); higher = less ribozyme self-cleavage, higher mRNA level; conditions: ligand concentration (+) RNA-Seq: 5 mM, HEK293T, reporter: mCherry (pCS4076), ligand present: yes
# How it was run: (§2)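 Library plasmids carrying ribozyme switches linked to mCherry, or to eGFP in some ligand experiments, were transfected into HEK293T at 4 µg per 6-well well, with any ligand added 1 h earlier. Seventy-two hours on, total RNA was extracted with EDTA and reverse-transcribed, amplified, barcoded and sequenced. RNA level was RNA over DNA reads normalized to a spiked-in non-cleaving sequence or to the top sequences, then scaled and log-transformed. The top set was 25 sequences, the transform was ×100 and log10, and sequences needed ≥100 DNA reads.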
# hypoxanthine [3] = variants of: B1; test: normalized RNA/DNA level without ligand (relative to sTRSVctl = 100) (log10 (% of sTRSVctl)); ligand: hypoxanthine (xanthine aptamer); higher = less ribozyme self-cleavage, higher mRNA level; conditions: HEK293T, reporter: mCherry (pCS4076), ligand present: no
# How it was run: as §2
# hypoxanthine [4] = variants of: B1; test: FACS-Seq fitted mean relative fluorescence mCherry/BFP with ligand (log10 relative fluorescence); ligand: hypoxanthine (xanthine aptamer); ligand concentration (+) FACS-Seq: 5 mM; higher = higher reporter protein expression; conditions: HEK293T, ligand present: yes
# How it was run: as §1
variant,measurement,setting,value
GCUGUCACCGGUGUAUUACCCUAGUGGUCGACCGGUCUGAUGAGUCUGUAGCCAGACGAAACAGC [GUAGCC],FACS-Seq fitted mean (log10),hypoxanthine [1],0.609 ± 0.017
same,normalized RNA/DNA level with ligand (log10),hypoxanthine [2],1.982 ± 0.014
same,normalized RNA/DNA level without ligand (log10),hypoxanthine [3],1.83 ± 0.02
same,FACS-Seq fitted mean (log10),hypoxanthine [4],0.678 ± 0.059
GCUGUCACCGGUGUAUUACCCUAGUGGUCGACCGGUCUGAUGAGUCUGUAGCUAGACGAAACAGC [GUAGCU],FACS-Seq fitted mean (log10),hypoxanthine [1],-0.279 ± 0.094
same,normalized RNA/DNA level with ligand (log10),hypoxanthine [2],1.98 ± 0.03
same,normalized RNA/DNA level without ligand (log10),hypoxanthine [3],1.88 ± 0.063
same,FACS-Seq fitted mean (log10),hypoxanthine [4],-0.197 ± 0.0065
GCUGUCACCGGUGUAUUACCCUAGUGGUCGACCGGUCUGAUGAGUCUAUAGGGAGACGAAACAGC [AUAGGG],FACS-Seq fitted mean (log10),hypoxanthine [1],0.023 ± 0.0025
same,normalized RNA/DNA level with ligand (log10),hypoxanthine [2],1.807 ± 0.011
same,normalized RNA/DNA level without ligand (log10),hypoxanthine [3],1.38 ± 0.0023
same,FACS-Seq fitted mean (log10),hypoxanthine [4],0.46 ± 0.053
GCUGUCACCGGUGUAUUACCCUAGUGGUCGACCGGUCUGAUGAGUCUAUAGGAAGACGAAACAGC [AUAGGA],FACS-Seq fitted mean (log10),hypoxanthine [1],0.382 ± 0.011
same,normalized RNA/DNA level with ligand (log10),hypoxanthine [2],1.9 ± 0.042
same,normalized RNA/DNA level without ligand (log10),hypoxanthine [3],1.658 ± 0.015
same,FACS-Seq fitted mean (log10),hypoxanthine [4],0.529 ± 0.017
GCUGUCACCGGUGUAUUACCCUAGUGGUCGACCGGUCUGAUGAGUCUCUAGGAAGACGAAACAGC [CUAGGA],FACS-Seq fitted mean (log10),hypoxanthine [1],0.7992 ± 0.0063
same,normalized RNA/DNA level with ligand (log10),hypoxanthine [2],1.938 ± 0.0084
same,normalized RNA/DNA level without ligand (log10),hypoxanthine [3],1.859 ± 0.018
same,FACS-Seq fitted mean (log10),hypoxanthine [4],0.697 ± 0.022
GCUGUCACCGGUGUAUUACCCUAGUGGUCGACCGGUCUGAUGAGUCUCUAGGGAGACGAAACAGC [CUAGGG],FACS-Seq fitted mean (log10),hypoxanthine [1],0.0497 ± 0.042
same,normalized RNA/DNA level with ligand (log10),hypoxanthine [2],1.89 ± 0.035
same,normalized RNA/DNA level without ligand (log10),hypoxanthine [3],1.53 ± 0.028
same,FACS-Seq fitted mean (log10),hypoxanthine [4],0.294 ± 0.039
GCUGUCACCGGUGUAUUACCCUAGUGGUCGACCGGUCUGAUGAGUCUGUAGAGAGACGAAACAGC [GUAGAG],FACS-Seq fitted mean (log10),hypoxanthine [1],0.148 ± 0.015
same,normalized RNA/DNA level with ligand (log10),hypoxanthine [2],1.83 ± 0.073
same,normalized RNA/DNA level without ligand (log10),hypoxanthine [3],1.31 ± 0.16
same,FACS-Seq fitted mean (log10),hypoxanthine [4],0.627 ± 0.068
GCUGUCACCGGUGUAUUACCCUAGUGGUCGACCGGUCUGAUGAGUCUGUAGAAAGACGAAACAGC [GUAGAA],FACS-Seq fitted mean (log10),hypoxanthine [1],0.2674 ± 0.0022
same,normalized RNA/DNA level with ligand (log10),hypoxanthine [2],1.89 ± 0.03
same,normalized RNA/DNA level without ligand (log10),hypoxanthine [3],1.723 ± 0.0046
same,FACS-Seq fitted mean (log10),hypoxanthine [4],0.342 ± 0.023
GCUGUCACCGGUGUAUUACCCUAGUGGUCGACCGGUCUGAUGAGUCUCUAGAAAGACGAAACAGC [CUAGAA],FACS-Seq fitted mean (log10),hypoxanthine [1],0.259 ± 0.2
same,normalized RNA/DNA level with ligand (log10),hypoxanthine [2],1.92 ± 0.032
same,normalized RNA/DNA level without ligand (log10),hypoxanthine [3],1.79 ± 0.042
same,FACS-Seq fitted mean (log10),hypoxanthine [4],0.359 ± 0.059
GCUGUCACCGGUGUAUUACCCUAGUGGUCGACCGGUCUGAUGAGUCUCUAGACAGACGAAACAGC [CUAGAC],FACS-Seq fitted mean (log10),hypoxanthine [1],0.273 ± 0.014
same,normalized RNA/DNA level with ligand (log10),hypoxanthine [2],1.901 ± 0.0041
same,normalized RNA/DNA level without ligand (log10),hypoxanthine [3],1.832 ± 0.011
same,FACS-Seq fitted mean (log10),hypoxanthine [4],0.149 ± 0.099
GCUGUCACCGGUGUAUUACCCUAGUGGUCGACCGGUCUGAUGAGUCUCUAGAUAGACGAAACAGC [CUAGAU],FACS-Seq fitted mean (log10),hypoxanthine [1],-0.176 ± 0.0088
same,normalized RNA/DNA level with ligand (log10),hypoxanthine [2],1.96 ± 0.051
same,normalized RNA/DNA level without ligand (log10),hypoxanthine [3],1.79 ± 0.056
same,FACS-Seq fitted mean (log10),hypoxanthine [4],0.0723 ± 0.049
GCUGUCACCGGUGUAUUACCCUAGUGGUCGACCGGUCUGAUGAGUCUAUAGCGAGACGAAACAGC [AUAGCG],FACS-Seq fitted mean (log10),hypoxanthine [1],-0.227 ± 0.035
same,normalized RNA/DNA level with ligand (log10),hypoxanthine [2],1.87 ± 0.045
same,normalized RNA/DNA level without ligand (log10),hypoxanthine [3],1.36 ± 0.057
same,FACS-Seq fitted mean (log10),hypoxanthine [4],-0.0558 ± 0.023
GCUGUCACCGGUGUAUUACCCUAGUGGUCGACCGGUCUGAUGAGUCUAUAGCAAGACGAAACAGC [AUAGCA],FACS-Seq fitted mean (log10),hypoxanthine [1],0.241 ± 0.047
same,normalized RNA/DNA level with ligand (log10),hypoxanthine [2],1.88 ± 0.033
same,normalized RNA/DNA level without ligand (log10),hypoxanthine [3],1.78 ± 0.023
same,FACS-Seq fitted mean (log10),hypoxanthine [4],0.455 ± 0.093
GCUGUCACCGGUGUAUUACCCUAGUGGUCGACCGGUCUGAUGAGUCUAUAGAAAGACGAAACAGC [AUAGAA],FACS-Seq fitted mean (log10),hypoxanthine [1],0.429 ± 0.005
same,normalized RNA/DNA level with ligand (log10),hypoxanthine [2],1.87 ± 0.089
same,normalized RNA/DNA level without ligand (log10),hypoxanthine [3],1.705 ± 0.0096
same,FACS-Seq fitted mean (log10),hypoxanthine [4],0.6216 ± 0.0039
GCUGUCACCGGUGUAUUACCCUAGUGGUCGACCGGUCUGAUGAGUCUAUAGACAGACGAAACAGC [AUAGAC],FACS-Seq fitted mean (log10),hypoxanthine [1],0.72 ± 0.12
same,normalized RNA/DNA level with ligand (log10),hypoxanthine [2],1.88 ± 0.035
same,normalized RNA/DNA level without ligand (log10),hypoxanthine [3],1.8 ± 0.018
same,FACS-Seq fitted mean (log10),hypoxanthine [4],0.755 ± 0.051
GCUGUCACCGGUGUAUUACCCUAGUGGUCGACCGGUCUGAUGAGUCUUUAGGCAGACGAAACAGC [UUAGGC],FACS-Seq fitted mean (log10),hypoxanthine [1],0.15 ± 0.015
same,normalized RNA/DNA level with ligand (log10),hypoxanthine [2],1.95 ± 0.05
same,normalized RNA/DNA level without ligand (log10),hypoxanthine [3],1.887 ± 0.014
same,FACS-Seq fitted mean (log10),hypoxanthine [4],0.181 ± 0.0045
GCUGUCACCGGUGUAUUACCCUAGUGGUCGACCGGUCUGAUGAGUCUUUAGGGAGACGAAACAGC [UUAGGG],FACS-Seq fitted mean (log10),hypoxanthine [1],0.351 ± 0.012
same,normalized RNA/DNA level with ligand (log10),hypoxanthine [2],1.87 ± 0.037
same,normalized RNA/DNA level without ligand (log10),hypoxanthine [3],1.69 ± 0.017
same,FACS-Seq fitted mean (log10),hypoxanthine [4],0.655 ± 0.028
GCUGUCACCGGUGUAUUACCCUAGUGGUCGACCGGUCUGAUGAGUCUGUAGGCAGACGAAACAGC [GUAGGC],FACS-Seq fitted mean (log10),hypoxanthine [1],0.126 ± 0.003
same,normalized RNA/DNA level with ligand (log10),hypoxanthine [2],1.87 ± 0.043
same,normalized RNA/DNA level without ligand (log10),hypoxanthine [3],1.38 ± 0.043
same,FACS-Seq fitted mean (log10),hypoxanthine [4],0.611 ± 0.02
GCUGUCACCGGUGUAUUACCCUAGUGGUCGACCGGUCUGAUGAGUCUGUAGGGAGACGAAACAGC [GUAGGG],FACS-Seq fitted mean (log10),hypoxanthine [1],0.143 ± 0.034
same,normalized RNA/DNA level with ligand (log10),hypoxanthine [2],1.86 ± 0.055
same,normalized RNA/DNA level without ligand (log10),hypoxanthine [3],1.49 ± 0.037
same,FACS-Seq fitted mean (log10),hypoxanthine [4],0.5302 ± 0.0037
GCUGUCACCGGUGUAUUACCCUAGUGGUCGACCGGUCUGAUGAGUCUCUAGCAAGACGAAACAGC [CUAGCA],FACS-Seq fitted mean (log10),hypoxanthine [1],0.139 ± 0.058
same,normalized RNA/DNA level with ligand (log10),hypoxanthine [2],1.93 ± 0.038
same,normalized RNA/DNA level without ligand (log10),hypoxanthine [3],1.83 ± 0.04
same,FACS-Seq fitted mean (log10),hypoxanthine [4],0.177 ± 0.018
GCUGUCACCGGUGUAUUACCCUAGUGGUCGACCGGUCUGAUGAGUCUUUAGAAAGACGAAACAGC [UUAGAA],FACS-Seq fitted mean (log10),hypoxanthine [1],0.092 ± 0.0099
same,normalized RNA/DNA level with ligand (log10),hypoxanthine [2],1.89 ± 0.043
same,normalized RNA/DNA level without ligand (log10),hypoxanthine [3],1.694 ± 0.0073
same,FACS-Seq fitted mean (log10),hypoxanthine [4],0.285 ± 0.021
